# Data: publication PMC12442453
# Changes are numbered by the printed parent chain. Numbers in names are those of the source.
# B1: Db-Fc 1 L:Y109D; L:I116F; H:Y35R; H:I39M; H:Y59H; H:S63G; H:G114S (protein)
# chain 1: EVQLVESGGGLVQPGGSLRLSCAASGFNLRSYYMHWVRQAPGKGLEWVASISPHYGYTYYADSVKGRFTISADTSKNTAYLQMNSLRAEDTAVYYCARHGYSAMDYWGQGTLVTVSS
# chain 2: DIQMTQSPSSLSASVGDRVTITCRASQSVSSAVAWYQQKPGKAPKLLIYSASSLYSGVPSRFSGSRSGTDFTLTISSLQPEDFATYYCQQSSDSLFTFGQGTKVEIK
# B2: Db-Fc 1.3 (Fc fusion)
# VH: B1 chain 1
# VL: B1 chain 2
# B3: VL–VH 1.1 without an Fc domain (protein)
# VH: B1 chain 1 with H54Y, G56S, S102G
# VL: B1 chain 2 with D93Y, F96I
# Assays:
# [1] = molecular target: T1, human EPOR ectodomain (ECD) fused to a human Fc domain (EPOR-Fc), P19235; assay: BLI; conditions: chain shown with the change; solution-phase Db-Fc, immobilized EPOR-Fc
# T1 chain: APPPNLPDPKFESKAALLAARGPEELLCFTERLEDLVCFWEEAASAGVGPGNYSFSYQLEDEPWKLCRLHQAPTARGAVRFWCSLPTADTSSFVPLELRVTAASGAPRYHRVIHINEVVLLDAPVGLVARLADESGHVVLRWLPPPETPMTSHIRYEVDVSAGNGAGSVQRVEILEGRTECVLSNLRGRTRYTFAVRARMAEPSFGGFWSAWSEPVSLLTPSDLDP
# [2] = molecular target: T2, human EPOR, endogenous on TF-1 cells (human (endogenous in TF-1)) (UniProt P19235)
# T2 sequence: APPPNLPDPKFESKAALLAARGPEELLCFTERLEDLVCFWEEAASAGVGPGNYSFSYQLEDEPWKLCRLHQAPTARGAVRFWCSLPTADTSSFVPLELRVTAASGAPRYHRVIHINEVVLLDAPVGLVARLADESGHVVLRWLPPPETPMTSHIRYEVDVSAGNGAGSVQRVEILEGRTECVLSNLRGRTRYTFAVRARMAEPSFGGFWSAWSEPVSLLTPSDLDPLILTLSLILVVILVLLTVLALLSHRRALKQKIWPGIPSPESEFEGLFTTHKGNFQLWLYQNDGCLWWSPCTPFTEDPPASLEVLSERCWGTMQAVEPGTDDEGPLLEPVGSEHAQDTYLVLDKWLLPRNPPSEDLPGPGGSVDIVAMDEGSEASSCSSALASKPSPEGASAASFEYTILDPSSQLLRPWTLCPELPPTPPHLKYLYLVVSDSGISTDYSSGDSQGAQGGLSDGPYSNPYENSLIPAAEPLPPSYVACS
# [3] = molecular target: VL–VH 1.1 without an Fc domain; assay: crystal structure; VL–VH 1.1 alone, space group P21, 2.06 Å, four chains in the asymmetric unit; 20% PEG8000, 100 mM CHES
binder,measurement,setting,value
B1,Kd,[1],3.8 nM
B2,"UT-7/Epo cell proliferation, EC50; Hb-Fc3 fraction of variant 1.3 (putative hexamer)",[2],1.1 nM
same,"UT-7/Epo cell proliferation, EC50; purified Db-Fc fraction of variant 1.3 (putative dimer)",[2],16 nM
same,"UT-7/Epo cell proliferation, EC50; unfractionated Db-Fcmix 1.3",[2],1.8 nM
same,"UT-7/Epo cell proliferation, maximum response; Hb-Fc3 fraction of variant 1.3 (putative hexamer)",[2],3.4e+06 RLU
same,"UT-7/Epo cell proliferation, maximum response; purified Db-Fc fraction of variant 1.3 (putative dimer)",[2],600000 RLU
same,"UT-7/Epo cell proliferation, maximum response; unfractionated Db-Fcmix 1.3",[2],2.5e+06 RLU
B3,stoichiometry N,[3],4
